{"source": "patent US20100129369A1", "about": "(Eli Lilly, published 2010)", "key": {"RON-ECD-Fc [1]": {"molecular_target": "T1, RON-ECD-Fc (human, UniProt Q04912 25-957)", "T1 construct": "extracellular domain; Bought reagent; not shown: Fc part of the bought fusion", "T1 sequence (looked up)": "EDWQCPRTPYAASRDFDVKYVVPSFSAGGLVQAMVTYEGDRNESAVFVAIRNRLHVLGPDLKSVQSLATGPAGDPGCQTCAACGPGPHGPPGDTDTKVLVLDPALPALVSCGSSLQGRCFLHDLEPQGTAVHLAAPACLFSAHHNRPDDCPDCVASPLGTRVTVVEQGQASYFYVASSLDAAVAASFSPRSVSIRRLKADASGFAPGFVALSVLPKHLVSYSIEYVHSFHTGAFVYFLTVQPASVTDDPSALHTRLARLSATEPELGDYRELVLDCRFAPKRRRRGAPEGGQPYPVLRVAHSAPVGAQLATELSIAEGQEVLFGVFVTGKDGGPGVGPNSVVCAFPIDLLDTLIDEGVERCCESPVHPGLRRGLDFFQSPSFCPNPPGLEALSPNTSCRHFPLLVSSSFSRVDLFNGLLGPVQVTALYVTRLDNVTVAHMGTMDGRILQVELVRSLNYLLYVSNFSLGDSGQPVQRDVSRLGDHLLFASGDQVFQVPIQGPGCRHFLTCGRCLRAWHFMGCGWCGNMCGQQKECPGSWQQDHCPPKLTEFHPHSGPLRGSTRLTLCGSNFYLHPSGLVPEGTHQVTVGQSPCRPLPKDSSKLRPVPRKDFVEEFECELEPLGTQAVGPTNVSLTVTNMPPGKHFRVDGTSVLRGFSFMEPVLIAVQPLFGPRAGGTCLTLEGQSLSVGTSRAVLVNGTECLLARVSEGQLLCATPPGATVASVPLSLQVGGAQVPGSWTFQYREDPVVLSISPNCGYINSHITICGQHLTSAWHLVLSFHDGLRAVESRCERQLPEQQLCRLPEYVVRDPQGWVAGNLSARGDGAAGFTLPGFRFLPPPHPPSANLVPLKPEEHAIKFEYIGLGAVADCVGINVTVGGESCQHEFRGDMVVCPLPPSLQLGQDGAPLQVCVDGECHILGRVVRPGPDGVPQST", "assay": "ELISA, coated ECD-Fc, antibody 0.060 ng/mL", "protocol": "(§1) Wells of 96-well EIA/RIA high binding plates (Costar, #2592) are coated with 100 μL of 1 μg/mL human c-Met extracellular domain (ECD)-Fc-Flis fusion (SEQ ID NO:72), RON-ECD-Fc (R&D Systems, #1947-MS), or PlexinA2-ECD-Fc (Abnova, Taipei, Taiwan #H00005362-P01) in coating buffer (BioFX Labs, # COAT-1000-01) overnight at 4° C. […] After the plates are washed, 100 μL/well of substrate solution (BioFx, #TMBW-1000-01) are added and the plates are incubated for 10 min. at room temperature. 100 μL/well of stop solution (BioFx, # LSTP-1000-01) are added to stop the reaction. The colorimetric signals are developed and read at 450 nm using a SpectraMax 190 plate reader (Molecular Devices, Sunnyvale, Calif.). c-Met antibody binding to c-Met, RON and PlexinA2 ECDs is proportional to color signal production."}, "PlexinA2-ECD-Fc [2]": {"molecular_target": "T2, PlexinA2-ECD-Fc (human, UniProt O75051 35-1237)", "T2 construct": "extracellular domain; Bought reagent", "T2 sequence (looked up)": "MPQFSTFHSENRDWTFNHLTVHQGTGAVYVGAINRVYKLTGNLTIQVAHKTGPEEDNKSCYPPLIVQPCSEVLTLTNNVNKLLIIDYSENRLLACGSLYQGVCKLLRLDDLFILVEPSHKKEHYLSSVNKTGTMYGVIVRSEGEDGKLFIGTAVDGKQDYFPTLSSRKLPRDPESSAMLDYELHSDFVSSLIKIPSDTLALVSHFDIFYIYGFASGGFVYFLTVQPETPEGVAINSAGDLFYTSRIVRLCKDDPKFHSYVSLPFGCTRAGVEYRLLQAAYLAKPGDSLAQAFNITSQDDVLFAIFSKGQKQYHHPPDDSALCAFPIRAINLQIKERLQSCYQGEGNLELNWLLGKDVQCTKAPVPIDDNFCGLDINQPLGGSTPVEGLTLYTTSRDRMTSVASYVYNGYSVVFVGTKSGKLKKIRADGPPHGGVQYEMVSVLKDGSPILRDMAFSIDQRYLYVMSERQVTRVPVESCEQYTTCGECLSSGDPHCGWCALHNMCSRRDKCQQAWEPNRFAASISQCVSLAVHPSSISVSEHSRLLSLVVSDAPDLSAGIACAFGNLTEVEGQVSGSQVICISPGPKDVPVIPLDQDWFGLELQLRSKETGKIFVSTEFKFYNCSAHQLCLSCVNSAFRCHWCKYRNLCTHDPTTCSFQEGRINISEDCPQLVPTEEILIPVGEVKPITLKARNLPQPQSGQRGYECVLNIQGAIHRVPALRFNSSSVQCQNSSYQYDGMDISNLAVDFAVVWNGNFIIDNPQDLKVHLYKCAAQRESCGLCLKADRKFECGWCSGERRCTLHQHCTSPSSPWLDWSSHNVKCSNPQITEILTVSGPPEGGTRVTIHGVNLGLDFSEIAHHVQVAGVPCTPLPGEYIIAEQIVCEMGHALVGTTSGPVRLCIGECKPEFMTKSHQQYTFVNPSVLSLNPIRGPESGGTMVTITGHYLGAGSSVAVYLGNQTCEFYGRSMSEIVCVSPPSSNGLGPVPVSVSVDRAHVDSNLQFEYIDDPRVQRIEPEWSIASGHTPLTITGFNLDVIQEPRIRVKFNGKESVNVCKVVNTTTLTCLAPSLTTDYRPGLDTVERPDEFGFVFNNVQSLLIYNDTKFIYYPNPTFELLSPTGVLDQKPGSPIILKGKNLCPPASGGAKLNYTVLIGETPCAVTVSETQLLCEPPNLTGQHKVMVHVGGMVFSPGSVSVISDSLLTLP", "assay": "ELISA, coated ECD-Fc, antibody 0.060 ng/mL", "protocol": "as §1"}, "Human c-Met-Flis-Fc ECD [3]": {"molecular_target": "T3, Human c-Met-Flis-Fc ECD (human)", "T3 construct": "also called human c-Met extracellular domain (ECD)-Fc-Flis fusion; Human cMet-ECD-Fc-Flis", "T3 sequence (chain, as listed by the source limits assumed)": "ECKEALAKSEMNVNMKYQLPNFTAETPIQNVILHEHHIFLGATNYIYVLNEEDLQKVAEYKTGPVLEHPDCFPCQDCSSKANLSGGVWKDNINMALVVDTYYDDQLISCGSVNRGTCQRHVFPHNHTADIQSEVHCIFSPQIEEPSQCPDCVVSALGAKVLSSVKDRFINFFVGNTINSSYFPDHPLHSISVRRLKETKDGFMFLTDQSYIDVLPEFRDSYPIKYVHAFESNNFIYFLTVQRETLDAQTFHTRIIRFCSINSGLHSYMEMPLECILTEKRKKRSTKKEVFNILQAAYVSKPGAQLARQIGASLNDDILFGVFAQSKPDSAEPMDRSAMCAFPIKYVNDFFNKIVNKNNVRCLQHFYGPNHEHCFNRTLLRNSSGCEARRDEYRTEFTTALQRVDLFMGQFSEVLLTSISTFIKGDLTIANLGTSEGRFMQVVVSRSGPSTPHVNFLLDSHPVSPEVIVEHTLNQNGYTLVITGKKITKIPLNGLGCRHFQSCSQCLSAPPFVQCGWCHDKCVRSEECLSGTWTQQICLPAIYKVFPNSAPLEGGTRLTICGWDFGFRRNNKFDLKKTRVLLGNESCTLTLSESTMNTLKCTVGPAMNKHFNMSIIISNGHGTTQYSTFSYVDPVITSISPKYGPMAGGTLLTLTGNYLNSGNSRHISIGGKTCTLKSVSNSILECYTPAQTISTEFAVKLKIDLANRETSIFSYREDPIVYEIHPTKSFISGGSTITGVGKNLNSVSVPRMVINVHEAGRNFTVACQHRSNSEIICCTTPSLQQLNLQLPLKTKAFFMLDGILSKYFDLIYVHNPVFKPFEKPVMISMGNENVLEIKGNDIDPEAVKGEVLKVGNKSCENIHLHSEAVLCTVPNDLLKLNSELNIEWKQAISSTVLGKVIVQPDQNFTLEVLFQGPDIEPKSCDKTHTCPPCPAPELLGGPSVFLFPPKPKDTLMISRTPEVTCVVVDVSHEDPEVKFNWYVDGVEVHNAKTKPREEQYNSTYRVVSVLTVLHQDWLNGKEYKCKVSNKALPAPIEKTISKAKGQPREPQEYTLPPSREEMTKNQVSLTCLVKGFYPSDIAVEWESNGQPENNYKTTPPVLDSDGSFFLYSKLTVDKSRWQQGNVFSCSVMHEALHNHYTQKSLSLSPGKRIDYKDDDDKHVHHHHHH", "assay": "ELISA, coated ECD-Fc, antibody 0.060 ng/mL", "protocol": "as §1"}, "RON-ECD-Fc [4]": {"molecular_target": "T1, RON-ECD-Fc", "assay": "ELISA, coated ECD-Fc, antibody 77.160 ng/mL", "protocol": "as §1"}, "PlexinA2-ECD-Fc [5]": {"molecular_target": "T2, PlexinA2-ECD-Fc", "assay": "ELISA, coated ECD-Fc, antibody 77.160 ng/mL", "protocol": "as §1"}, "Human c-Met-Flis-Fc ECD [6]": {"molecular_target": "T3, Human c-Met-Flis-Fc ECD", "assay": "ELISA, coated ECD-Fc, antibody 77.160 ng/mL", "protocol": "as §1"}}, "data": [{"binder": "C8-6 (antibody, human IgG2, kappa, V domains shown, Called IgG4, kappa; also called Mab C8-6) VH: QVQLVQSGAEVKKPGASVKVSCKASGYTFTDYYMHWVRQAPGQGLEWMGRVNPNRGGTTYNQKFEGRVTMTTDTSTSTAYMELRSLRSDDTAVYYCARTNWLDYWGQGTTVTVSS VL: DIQMTQSPSSLSASVGDRVTITCSVSSSVSSIYLHWYQQKPGKAPKLLIYSTSNLASGVPSRFSGSGSGTDFTLTISSLQPEDFATYYCIQYSGYPLTFGGGTKVEIKR", "values": [{"measurement": "Average A450 nm", "setting": "RON-ECD-Fc [1]", "value": 0.087, "unit": "A450 nm"}, {"measurement": "Average A450 nm", "setting": "PlexinA2-ECD-Fc [2]", "value": 0.096, "unit": "A450 nm"}, {"measurement": "Average A450 nm", "setting": "Human c-Met-Flis-Fc ECD [3]", "value": 0.551, "unit": "A450 nm"}, {"measurement": "Average A450 nm", "setting": "RON-ECD-Fc [4]", "value": 0.09, "unit": "A450 nm"}, {"measurement": "Average A450 nm", "setting": "PlexinA2-ECD-Fc [5]", "value": 0.078, "unit": "A450 nm"}, {"measurement": "Average A450 nm", "setting": "Human c-Met-Flis-Fc ECD [6]", "value": 4, "unit": "A450 nm"}]}]}
